Assay results published in US20110243927A1.

Molecular target: β5 integrin (human, ITGB5) (human)
Test: cell-based or functional assay

% Inhibition of cell growth, SKBr3 cells, SRB assay, 5 days, antibody alone at 0.08 µg/ml (trastuzumab 0): 30%
% Inhibition of cell growth, SKBr3 cells, SRB assay, 5 days, antibody alone at 0.4 µg/ml (trastuzumab 0): 43.7%
% Inhibition of cell growth, SKBr3 cells, SRB assay, 5 days, antibody alone at 2 µg/ml (trastuzumab 0): 52.6%
% Inhibition of cell growth, SKBr3 cells, SRB assay, 5 days, antibody alone at 10 µg/ml (trastuzumab 0): 71.5%
% Inhibition of cell growth, SKBr3 cells, SRB assay, 5 days, antibody alone at 50 µg/ml (trastuzumab 0): 76.2%
Inhibition of cell proliferation, 184-A1 (normal breast cell line), 10 µg/ml, 4 days, vs isotype control: 0%
Inhibition of cell proliferation, 231 (breast), 10 µg/ml, 4 days, vs isotype control: 23%
Inhibition of cell proliferation, 435 (breast), 10 µg/ml, 4 days, vs isotype control: 33.7%
Inhibition of cell proliferation, 453 (breast), 10 µg/ml, 4 days, vs isotype control: 24.9%
Inhibition of cell proliferation, 468 (breast), 10 µg/ml, 4 days, vs isotype control: 44.3%
Inhibition of cell proliferation, A172 (brain), 10 µg/ml, 4 days, vs isotype control: 90%
Inhibition of cell proliferation, A549 (lung), 10 µg/ml, 4 days, vs isotype control: 60 to 80%
Inhibition of cell proliferation, BT-474 (breast), 10 µg/ml, 4 days, vs isotype control: 0%
Inhibition of cell proliferation, CaoV3 (ovary), 10 µg/ml, 4 days, vs isotype control: 45.9%
Inhibition of cell proliferation, Colo205 (colon), 10 µg/ml, 4 days, vs isotype control: 27.2%
Inhibition of cell proliferation, Du145 (prostate), 10 µg/ml, 4 days, vs isotype control: 17.1%
Inhibition of cell proliferation, Du-4475 (breast), 10 µg/ml, 4 days, vs isotype control: 2.13%
Inhibition of cell proliferation, H358 (lung), 10 µg/ml, 4 days, vs isotype control: 30.1%
Inhibition of cell proliferation, H460 (lung), 10 µg/ml, 4 days, vs isotype control: 39.7%
Inhibition of cell proliferation, HCC-1419 (breast), 10 µg/ml, 4 days, vs isotype control: 20.9%
Inhibition of cell proliferation, HCC-1954 (breast), 10 µg/ml, 4 days, vs isotype control: 39.3%
Inhibition of cell proliferation, HCT8 (colon), 10 µg/ml, 4 days, vs isotype control: 33%
Inhibition of cell proliferation, HCT15 (colon), 10 µg/ml, 4 days, vs isotype control: 58.7%
Inhibition of cell proliferation, HMEC C (normal human mammary epithelial cells), 10 µg/ml, 4 days, vs isotype control: 0%
Inhibition of cell proliferation, MCF7 (breast), 10 µg/ml, 4 days, vs isotype control: 49.1%
Inhibition of cell proliferation, PC3 (prostate), 10 µg/ml, 4 days, vs isotype control: 11.2%
Inhibition of cell proliferation, SK-N-SH (brain), 10 µg/ml, 4 days, vs isotype control: 40%
Inhibition of cell proliferation, SKBr3 (breast), 10 µg/ml, 4 days, vs isotype control: 26.2%
Inhibition of cell proliferation, SW480 (colon), 10 µg/ml, 4 days, vs isotype control: 30.2%
Inhibition of cell proliferation, SW620 (colon), 10 µg/ml, 4 days, vs isotype control: 48.5%
Inhibition of cell proliferation, SW626 (ovary), 10 µg/ml, 4 days, vs isotype control: 29.7%
Inhibition of cell proliferation, SW1783 (listed under colon), 10 µg/ml, 4 days, vs isotype control: 26.6%
Inhibition of cell proliferation, Skov3 (ovary), 10 µg/ml, 4 days, vs isotype control: 15.1%
Inhibition of cell proliferation, T47D (breast), 10 µg/ml, 4 days, vs isotype control: 30.9%
Substance: anti-β5 integrin subunit monoclonal antibody KN52 (eBiosciences)
